The source of these data is patent US20100009390A1, “MUTANT ANTIBODIES WITH HIGH AFFINITY FOR EGFR” (THE REGENTS OF THE UNIVERSITY OF CALIFORNIA, priority 2008, published 2010).

Values joined by “and” are separate entries in the source; they are usually repeats but may differ in a detail not shown here. Identical values can stand only once. Like-named read-outs stand apart in the source and are kept apart here.

Assay [1] deals with T1, epidermal growth factor receptor (EGFR) on tumor cells (human, UniProt P00533 25-1210).
T1 construct: whole, on cells; also called EGFR on A431 cells; EGFR on MDAMB468 cells
Kind of assay: flow cytometry, soluble monomeric scFv on A431 cells, 4 C, equilibrium. The protocol: Cell binding was performed at 4° C. in FACS buffer in a volume calculated to ensure fivefold scFv excess and for a duration calculated to ensure that the reaction had reached equilibrium. After two washes with 200 μL of FACS buffer, cell-bound scFv was detected by the addition of 100 μl of 1 μg/ml biotinylated His probe (Santa Cruz Biotech.) and a 1:800 (v/v) dilution of streptavidin-PE (Biosource). After incubation at 4° C. for 30 min, the cells were washed twice and resuspended in PBS containing 4% (v/v) paraformaldehyde. Fluorescence was measured by flow cytometry in a FACS LSRII instrument (Becton Dickinson), and the median fluorescence intensity (MFI) values were fit to the equation: […]
(§1) To generate soluble scFv, the scFv genes were subcloned from pYD2 into the bacterial secretion vector pSYN1 (Schier et al (1995) Immunotechnology, 1:73-81), which directed the scFv to the bacterial periplasm using the pelB leader. The scFv was harvested from the bacterial periplasm and purified by immobilized metal-affinity chromatography as described (Id.). […] To ensure that the KD of monovalent scFv was determined, gel-filtration chromatography was performed as described (Schier and Marks (1996) Hum. Antibodies Hybridomas: 7: 97-105) to separate native monovalent scFv from dimeric scFv and aggregated scFv. scFv was used for cellular KD measurements immediately after gel-filtration.
For orientation: A flow cytometer gives signals particle by particle.

Assay [2] addresses T2, A431 cells expressing EGFR (Homo sapiens, UniProt P00533).
T2 construct: Human squamous carcinoma A431 cells expressing EGFR; endogenous in cells; host or cells: A431 epidermal (squamous) carcinoma cells
The assay can be described thus: Measurement of scFv affinity for cells expressing EGFR (flow cytometry). The assay is classed as binding. As to conditions: soluble monovalent scFv, 4° C. How it is done: Human squamous carcinoma A431 cells expressing EGFR were grown to 80-90% confluence in RPMI medium supplemented with 10% fetal bovine serum and harvested by trypsinization. […] Cell binding was performed at 4° C. in FACS buffer in a volume calculated to ensure fivefold scFv excess and for a duration calculated to ensure that the reaction had reached equilibrium. After two washes with 200 μL of FACS buffer, cell-bound scFv was detected by the addition of 100 μl of 1 μg/ml biotinylated His probe (Santa Cruz Biotech.) and a 1:800 (v/v) dilution of streptavidin-PE (Biosource). After incubation at 4° C. for 30 min, the cells were washed twice and resuspended in PBS containing 4% (v/v) paraformaldehyde. Fluorescence was measured by flow cytometry in a FACS LSRII instrument (Becton Dickinson), and the median fluorescence intensity (MFI) values were fit to the equation:
MFI=MFImin+MFImax([Ab]/(KD+[Ab])
using the software program Kaleidagraph as described previously (Benedict et al. (1997) J. Immunol. Methods, 201: 223-231).

In assay [3] the target is T3, biotinylated EGFR-ECD (Homo sapiens, UniProt P00533).
T3 construct: Recombinant EGFR-ECD was expressed in HEK293 cells; biotin (chemical label, NHS-sulfo-LC-biotin on amines); made in house; host or cells: HEK293 cells
The assay can be described thus: Yeast-displayed scFv affinity for biotinylated EGFR-ECD by flow cytometry. It is filed as binding. The following applies: scFv displayed on yeast; EGFR-ECD only 10% immunoreactive; read-out: KD for biotin-EGFR ECD. How it is done:
(§2) Generally, six to eight different concentrations of biotinylated EGFR were used to span a range of concentrations from ten times above to ten times below the KD. Incubation volumes, times and yeast numbers were chosen to ensure that the studies were done in at least fivefold antigen excess and that equilibrium had been achieved (Razai et al. (2005) J. Mol. Biol. 351: 158-169). For anti-EGFR scFv, […] in 50 μl were incubated with biotinylated EGFR-ECD for 1 h at room temperature. […] Only yeast displaying scFv (as determined by binding of SV5 mAb) were gated for affinity measurements.

Assay [4] concerns the target T4, MDAMB468 cells expressing EGFR (Homo sapiens, UniProt P00533).
T4 construct: Human breast cancer MDAMB468 cells expressing EGFR; endogenous in cells; host or cells: MDAMB468 breast carcinoma cells
Kind of assay: Immunoliposome binding affinity for cells expressing EGFR (flow cytometry). As to conditions: read-out: Apparent KD of immunoliposomes. How it is done:
Human breast cancer MDAMB468 cells expressing EGFR were grown to 80-90% confluence in L15 medium supplemented with 10% FBS and harvested by trypsinization. ILs labeled with DiIC18(3)-DS were incubated overnight with 10^4 cells at concentrations of IL ranging from 0.31-2.5 nM. The concentration of IL was converted from the concentration of phospholipid on the basis of the approximate number of phospholipid molecules per liposome (80,000). Cell binding was performed at 4° C. in FACS buffer in adequate volume to ensure a fivefold excess of ILs and that the reaction had come to equilibrium. After two washes with 200 μl of FACS buffer, the amount of cell-bound ILs was quantified by flow cytometry in a FACS LSRII (Becton Dickinson). Data analysis was the same as for the measurement of scFv KD.

Assay [5] concerns EGFR-over-expressing MDAMB468 cells. Kind of assay: Internalization/uptake of anti-EGFR immunoliposomes (microscopy, flow cytometry). The assay is classed as cell-based, Human. As to conditions: 74 scFv/liposome. How it is done:
(§3) scFv-mediated internalization of fluorescent immunoliposomes was analyzed and quantified by microscopy and flow cytometry. C10 scFv fragments were inserted into liposomes at ratios of 5, 10, 15, 30 and 60 μg scFv/μmol phospholipid (Mamot et al. (2003) Cancer Res. 63: 3154-3161). scFv densities of 16, 32, 48, 96 and 192 scFv/liposome were calculated on the basis of the molecular mass of scFv (26 kDa) and the approximate number of phospholipid molecules/liposome (80,000). The conjugation technology for scFv to Mal-PEG-DSPE is remarkably reproducible with an efficiency of 77.3(±3.1) % (range 75-82% over six batches) (Nellis et al. (2005) Biotechnol. Prog. 21: 205-220). […] For microscopy studies, 150,000 cells were incubated with 50 μM PL of untargeted and EGFR-targeted ILs labeled with DiIC18(3)-DS in a 12-well plate for 2 h at 37° C., followed by washing with PBS and further incubation at 37° C. for 2 h. The cells were then analyzed by using an inverted fluorescence microscope (Nikon Eclipse, TE300) with a 540/25 nm band-pass filter for excitation and a long-pass filter at 565 nm for emission. For quantitative uptake of immunoliposomes, 250,000 cells were incubated with EGFR-targeted ILs labeled with ADS645 in a six-well plate for 2 h at 37° C., washed with PBS, removed in trypsin solution and fluorescence quantified with a FACSAria instrument (Beckton Dickinson). To determine the effect of EGF competition on internalization of EGFR-targeted ILs, IL internalization was quantified as described above, except that 50 μM targeted ILs and cells were incubated with EGF concentrations ranging from 0.2-25 nM. ANOVA (analysis of variance) was used to analyze the statistical differences of the quantified uptake.

Assay [6] relates to MDAMB231 cells. The assay can be described thus: Uptake of EGFR immunoliposomes into cells of lower EGFR density. It is filed as cell-based, human. How it is done:
as §3
To determine the impact of receptor density on IL uptake, we measured the uptake of the different ILs into MDAMB231 cells which express 480,000 EGFR/cell as determined by flow cytometry using Quantum Simply Cellular anti-Human IgG beads (Bangs Laboratories Inc.). […] Uptake into MDAMB231 cells increased with increasing scFv density, reaching a plateau at an IL scFv density of 74 scFv/IL for P2/4 scFv and at 37 scFv/IL for 2224 scFv (FIG. 6C).

The target of assay [7] is T1, epidermal growth factor receptor (EGFR) …. The assay can be described thus: flow cytometry, soluble scFv on A431 cells; this end is tied to P3/5 through the KD values of Table 2. The protocol:
After two washes with 200 μL of FACS buffer, cell-bound scFv was detected by the addition of 100 μl of 1 μg/ml biotinylated His probe (Santa Cruz Biotech.) and a 1:800 (v/v) dilution of streptavidin-PE (Biosource). After incubation at 4° C. for 30 min, the cells were washed twice and resuspended in PBS containing 4% (v/v) paraformaldehyde. Fluorescence was measured by flow cytometry in a FACS LSRII instrument (Becton Dickinson), and the median fluorescence intensity (MFI) values were fit to the equation: […]
as §1

Assay [8] addresses T5, biotinylated recombinant EGFR-ECD (UniProt P00533 25-645, limits assumed, biotinylated with NHS-sulfo-LC-biotin).
T5 construct: extracellular domain; The claims speak of human EGFR; also called biotin-EGFR ECD; biotinylated EGFR
The assay can be described thus: flow cytometry, yeast-displayed scFv, biotinylated EGFR-ECD, equilibrium. How it is done:
as §2

B1: anti-EGFR scFv C10 (scFv, V domains shown)
VH: EVQLVQSGAEVKKPGSSVKVSCKASGGTFSSYAISWVRQAPGQGLEWMGGIIPIFGTANYAQKFQGRVTITADESTSTAYMELSSLRSEDTAVYYCAREEGPYCSSTSCYGAFDIWGQGTLVTVSS
VL: QSVLTQDPAVSVALGQTVKITCQGDSLRSYFASWYQQKPGQAPTLVMYARNDRPAGVPDRFSGSKSGTSASLAISGLQSEDEADYYCAAWDDSLNGYLFGAGTKLTVL
notes: Soluble monomeric scFv from pSYN1 in E. coli (Ni-NTA purified, detected with a His probe) in the assays on cells; also called C10 scFv; wild-type C10 scFv
B1 yielded a Kd in assay [1] of 264 nM.

B2: P3/5: C10 scFv mutant from the P3 sort gate; SEQ ID NO:11 (protein)
scFv: EVQLVQSGAEVKKPGSSVKVSCKASGGTFSSYAISWVRQAPGQGLEWVGGIIPIFGTANYAQKFQGRVKITADESASTAYMELSSLRSEDTAVYYCAREEGPYCSSTSCYGAFDIWGQGTLVTVSS
modifications: Variable chain of single chain antibody.
As for B2, in assay [2], the Kd is 88 nM.

B3: P2/4: C10 scFv mutant, Gly to Ala in VH CDR3 and Pro to Ala in VL FR1; SEQ ID NO:5 (protein)
scFv: EVQLVQSGAEVKKPGSSVKVSCKASGGTFSSYAISWVRQAPGQGLEWMGGIIPIFGTANYAQKFQGRVTITADESTSTAYMELSSLRSEDTAVYYCAREEGPYCSSTSCYAAFDIWGQGTLVTVSS
modifications: Variable chain of single chain antibody.
On to B3, for which the Kd in assay [3] was 1800 nM; in assay [2], 15 nM and 15.4 nM; in assay [4] (37 scFv/liposome), 2.04 nM; in assay [4] (74 scFv/liposome), 0.4 nM; in assay [4] (148 scFv/liposome), 0.18 nM. The “IL uptake greater compared to C10” value in assay [5] (IL 0.63 nM, flow cytometry) was found to be 24%. Also, the “endocytosis of ILs by fluorescence microscopy” value in assay [5] (MDAMB468) is given as “endocytosed efficiently”. Moreover, in assay [6], the “IL scFv density at which uptake into MDAMB231 cells reaches a plateau” value is on record as 74 scFv/IL. Besides, the “IL uptake into MDAMB231 cells compared to A431 cells” value in assay [6] (all scFv densities studied, 480,000 EGFR/cell) is reported as “significantly less uptake”.

B4: C10 mutant scFv P3/5 (scFv, V domains shown)
VH: EVQLVQSGAEVKKPGSSVKVSCKASGGTFSSYAISWVRQAPGQGLEWVGGIIPIFGTANYAQKFQGRVKITADESASTAYMELSSLRSEDTAVYYCAREEGPYCSSTSCYGAFDIWGQGTLVTVSS
VL: QSVLTQDPAVSVALGQTVKITCQGDSLRSYLASWYQQKPGQAPTLVTYARNDRPAGVPDRFSGSKSGTSASLAISGLQSEDEADYYCAAWDDSLNGYLFGAGTKLTVL
notes: soluble His-tagged monomeric scFv on cells
As to B4, in assay [1], the Kd was 88.2 nM. Besides, the “fold improvement in affinity compared to C10 scFv” value in assay [7] was in the range of 3 to 18 fold.

B5: C10 mutant scFv P2/2 (scFv, V domains shown)
VH: EVQLVQSGAEVKKPGSSVKVSCKASGGTFSSYAIGWVRQAPGQGLEWMGGIIPIFGIANYAQKFQGRVTITADESTSSAYMELSSLRSEDTAVYYCAREEGPYCSSTSCYGAFDIWGQGTLVTVSS
VL: QSVLTQDPAVSVALGQTVKITCQGDSLRSYFASWYQQKPGQAPTLVMYARNDRPAGVPDRFSGSKSGTSASLAISGLQPEDEADYYCAAWDDSLNGYLFGAGTKLTVL
notes: as for B4
For B5, the figures for the Kd in assay [1] and in assay [8] were 17 nM and 1800 nM, respectively.

B6: combined C10 mutant scFv 2224 (scFv, V domains shown)
VH: EVQLVQSGAEVKKPGSSVKVSCKASGGTFSSYAIGWVRQAPGQGLEWMGGIIPIFGIANYAQKFQGRVTITADESTSSAYMELSSLRSEDTAVYYCAREEGPYCSSTSCYAAFDIWGQGTLVTVSS
VL: QSVLTQDPAVSVALGQTVKITCQGDSLRSYFASWYQQKPGQAPTLVMYARNDRPAGVPDRFSGSKSGTSASLAISGLQPEDEADYYCAAWDDSLNGYLFGAGTKLTVL
notes: P2/2 with the VH CDR3 Gly to Ala substitution of P2/4; soluble His-tagged monomeric scFv on cells
Consider B6, for which the Kd in assay [8] amounted to 600 nM.
